Assays:
[1] = biological target: N-myristoylated human Arf1 bound to GTPγS, anchored on nanodiscs (myrArf1·GTPγS) (human) (UniProt P84077); test: not stated; binding of PH variants and Arf variants compared with wild type (Fig. SI8 and Table SI1); the method is not given
[2] = biological target: N-myristoylated human Arf1 bound to GTPγS, anchored on nanodiscs (myrArf1·GTPγS) (human) (UniProt P84077)

Chain of N-myristoylated human Arf1 bound to GTPγS, anchored on nanodiscs (myrArf1·GTPγS) (human) (P84077 whole entry): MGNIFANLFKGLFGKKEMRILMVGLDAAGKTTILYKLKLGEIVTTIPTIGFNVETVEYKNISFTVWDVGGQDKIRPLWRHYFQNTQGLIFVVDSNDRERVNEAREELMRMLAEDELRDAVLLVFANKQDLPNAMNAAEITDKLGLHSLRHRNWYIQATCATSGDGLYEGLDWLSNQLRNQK

**Q.** Which results are given for “ASAP1 PH domain Lys391Ala (from UniProt Q9QWY8 325-451) (domain or fragment)”?
**A.** fold reduction of binding against wild type [1]: 2 fold; fold decrease in GAP activity compared with wild type (C50 of PZA, Fig. 7C) [2]: 100 fold

— paper PMC12485133
